This is an account of results in patent publication JP2002536968A (dated 2002).

One assay deals with HUVEC上の細胞表面発現KDR (human) (UniProt P35968). The experiment in a line: cell-based or functional assay.
The target in assay [1] is T1, 可溶性融合タンパク質 KDR-AP (human, UniProt P35968 20-764).
T1 construct: extracellular domain; Made in NIH3T3 cells; also called KDR-アルカリ性ホスファターゼ融合タンパク質; 固定化KDR; not shown: human placental alkaline phosphatase (AP), from vector AP-tag
The assay is described as follows: BIAcore, KDR-AP immobilised (refers to Table 2).

The target in assay [2] is T1, 可溶性融合タンパク質 KDR-AP. The assay is described as follows: competitive VEGF binding ELISA: antibody mixed with KDR-AP, then on VEGF165-coated plate. A general note: In an ELISA, binding on a coated surface is turned into a signal by an enzyme label.
Assay [3] deals with T1, 可溶性融合タンパク質 KDR-AP. The assay is described as follows: BIAcore, KDR-AP immobilised, antibody injected at 25-200 nM. In general terms: Surface plasmon resonance follows binding to a sensor surface in real time, without labels.
The target in assay [4] is T1, 可溶性融合タンパク質 KDR-AP. The assay is described as follows: direct binding ELISA, soluble scFv on KDR-coated plate; concentration for 50% of maximal binding.
The target of assay [5] is T1, 可溶性融合タンパク質 KDR-AP. The assay is described as follows: competitive VEGF blocking ELISA: scFv mixed with KDR-AP, then on VEGF165-coated plate.
The target in assay [6] is T1, 可溶性融合タンパク質 KDR-AP. The assay is described as follows: BIAcore, KDR-AP immobilised, soluble scFv injected.

T1 sequence (P35968 20-764): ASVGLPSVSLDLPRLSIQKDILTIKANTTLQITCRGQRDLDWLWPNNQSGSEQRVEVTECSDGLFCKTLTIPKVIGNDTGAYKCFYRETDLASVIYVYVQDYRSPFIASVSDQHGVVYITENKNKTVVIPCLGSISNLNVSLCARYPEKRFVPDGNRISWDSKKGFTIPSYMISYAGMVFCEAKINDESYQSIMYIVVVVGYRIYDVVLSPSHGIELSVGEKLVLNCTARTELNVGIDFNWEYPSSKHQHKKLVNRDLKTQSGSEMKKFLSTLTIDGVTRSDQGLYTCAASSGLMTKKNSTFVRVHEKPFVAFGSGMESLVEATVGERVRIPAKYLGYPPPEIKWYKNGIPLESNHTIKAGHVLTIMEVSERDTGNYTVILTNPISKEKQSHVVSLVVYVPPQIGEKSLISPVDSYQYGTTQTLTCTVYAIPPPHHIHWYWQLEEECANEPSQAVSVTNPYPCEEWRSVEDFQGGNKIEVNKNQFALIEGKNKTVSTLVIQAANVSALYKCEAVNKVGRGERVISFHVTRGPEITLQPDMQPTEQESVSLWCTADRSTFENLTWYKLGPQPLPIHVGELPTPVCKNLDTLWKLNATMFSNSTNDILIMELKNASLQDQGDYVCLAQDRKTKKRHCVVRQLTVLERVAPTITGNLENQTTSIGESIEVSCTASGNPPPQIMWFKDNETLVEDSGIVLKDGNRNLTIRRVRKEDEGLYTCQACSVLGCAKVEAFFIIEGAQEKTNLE

B1: キメラ抗KDR抗体 c-p1C11 (antibody, from another filing)
scFv: QVKLQQSGAELVGSGASVKLSCTTSGFNIKDFYMHWVKQRPEQGLEWIGWIDPENGDSDYAPKFQGKATMTADSSSNTAYLQLSSLTSEDTAVYYCNAYYGDYEGYWGQGTTVTVSSGGGGSGGGGSGGGGSDIELTQSPAIMSASPGEKVTITCSASSSVSYMHWFQQKPGTSPKLWIYSTSNLASGVPARFSGSGSGTSYSLTISRMEAEDAATYYCQQRSSYPFTFGSGTKLEIK
For B1, the HUVECのVEGF誘導性有糸分裂誘発の50%を抑制するのに必要な抗体濃度 ([3H]-TdR) with HUVEC上の細胞表面発現KDR (human) worked out at 0.8 nM. For the same molecule, in the assay with 可溶性融合タンパク質 KDR-AP [1], the fold higher affinity than parent scFv p1C11 was found to be 2.5 fold. The IC50 (usually the concentration that inhibits the measured activity by half) in the assay with 可溶性融合タンパク質 KDR-AP [2] came to 0.8 nM. Also, in the assay with 可溶性融合タンパク質 KDR-AP [3], the dissociation constant Kd (in general, the free concentration of one partner at which half of the binding sites on the other are occupied at equilibrium, for simple one-to-one binding) was found to be 0.82 nM.

B2: scFv p1C11 (scFv)
chain: B1 scFv
Turning to B2, the values for the 50% inhibitory concentration (IC50) with 可溶性融合タンパク質 KDR-AP [2] and with 可溶性融合タンパク質 KDR-AP [5] were 2 nM and 3 nM, respectively. For the same molecule, it took 0.3 nM to reach a half-maximal effect in the assay with 可溶性融合タンパク質 KDR-AP [4] (EC50). This molecule came in with a Kd with 可溶性融合タンパク質 KDR-AP [6] of 2.1 nM.
